Assay results from paper PMC5389638 (Nucleic Acids Research, 2016).

Molecular target: the molecule itself
Assay: AFM volume analysis

B1: 6His–Ver (natural protein, Drosophila, UniProt Q9VTZ2 1-214, looked up)
chain: MDFNQSFEDIESQLDNFVIRKNQQSEKSTGKCGPEVHDNVPLTISQIERATQDPENENVFITDDVHPIHFCTCIIYAFVTGNGTHNESFMKFMIDDGTGSLEASITKKPFNGRVISSLYSEASSLASSEAYKSIAVSMMRLLQVSMEYIDPTRISRGHSLFLRGRPNRFRGKMGLDAFQFFIDSGRSRNMEIGFVDYLTDWQRRHKTMQNTTNK
stoichiometry N: 2
